From the supplement of paper PMC9170038

System: MS2 coat protein
Assay: apparent KD of MS2 coat protein; higher = weaker reporter binding
Details: Eterna round: R107
Description: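 RNA-MaP round R107: designed RNA switches with theophylline, tryptophan, arginine or FMN aptamers are transcribed on-chip within common flanks. They are titrated with SNAP-549-labelled MS2 coat protein in RNA-MaP buffer (100 mM Tris pH 7.5, 80 mM KCl, 4 mM MgCl2), without ligand or with the indicated ligand. Median apparent KD per design.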

[1] = input ligand: theophylline 20 uM
[2] = input ligand: theophylline 2 mM
[3] = input ligand: tryptophan 2.4 mM

Sequence	apparent KD of MS2 coat protein (input ligand: arginine 13.2 mM) [µM]	apparent KD of MS2 coat protein (input ligand: none) [µM]	apparent KD of MS2 coat protein [1] [µM]	apparent KD of MS2 coat protein [2] [µM]	apparent KD of MS2 coat protein [3] [µM]
CCUAUCCAGUCGGCCGCCACUGAAAACAGUGGGUGAACAUGAGGAUCACCCAUGUCGGAAUACCGCAGGACCGGGACUGUAUAGG [Ex Tryptophan B 23]	0.162	0.143	0.393	1.22	0.574
AUGUCGUUGAAUAUAGCGGCUUGGAGUGAUACCAGUAUGAUCCAAUACCCUUGGCAGCAUUACAUGAGGAUCACCCAUGUUCCAG [SSTheo A #24]	0.0172	0.0226	0.0372	0.0534	0.034
ACGUCCGGAUUACUCGUGGGCAUGGUCGAUACCAGUAUUUUAAUCUACCCUUGGCAGCGACAUGAGGAUCACCCAUGUGCGAUGA [XTheo A #20]	0.0215	0.0205	0.0416	0.0413	0.0218
UCUUGAGUUUCGGAUACCAGUGAUGUCGAUACAUGAGGAUCACCCAUGUUAGAGGAUGUACACCCUUGGCAGCCGGGUGUGGCGG [wswmullin]	0.0251	0.036	0.0421	0.0275	0.0449
UGUCAGCGAAAGUUGACAUGUUGAACCGGUCGAGGACCGGUACGGCCGCCACUCGAUCUCUCGUACAUGAGGAUCACCCAUGUCG [SS Tryp A #18]	0.0119		0.014	0.0117	
AAAACAAUCUGAAGGAGCGUCACAUGAGGAUCACCCAUGUACAUGAGGAUCACCCAUGUGUGACAGGUAGGUCGCAGAAAAUACC [Exclusion Arginine B GF 3]	0.111	0.216	0.183	0.219	0.2
GAUAUGUUUCGAAGGAGCGGCCCUUGAUCCUCAUGAGACAUGAGGAUCACCCAUGUCUCGGGCCAGGUAGGUCGCGAAAUAUAUC [Astros-omei-mod4]	0.0303	0.0192	0.0321	0.0214	0.0195
CCAUAAGUACCGGUCCUCAGAUCCUCAUGACGAGGACCGGUACGGCCGCCACUCGAAACAUGAGGAUCACCCAUGUAAUAAUAUC [Brourdmod17]	0.0255		0.0531	0.066	
GAGUCCACGGCGGCCGCCACUCGCGGCGCCACAUGGCGCCGGGACAUGAGGAUCACCCAUGUCCCGAGGACCGGGCCGAUCCUUA [Same State Typrtophan B GF3]	0.0112	0.021	0.0266	0.0315	0.0129
UAACAUGAGGAUCACCCAUGUUUGAAGGAACGAGGACCGGUACGGCCGCCACUCGACGAGUGGAUGAGAAGUGGGCUUGUGUGCU [Same State Trp A GF9]	0.0137	0.0155	0.0163	0.013	0.0165
UGUCAGCGAAAGUUGACAUGCAGUGCCGGUCGAGGACCGGUACGGCCGCCACUCGAUCUCUCGUACAUGAGGAUCACCCAUGUCG [SS Tryp A #19]	0.0144		0.0166	0.0149	
AACCGAGGCUAUCCUCUCCGACUAUGUGAUACCAGAAUAAUUUUAUUCCCUUGGCAGCAUGACAUGAGGAUCACCCAUGUCUCUU [SSTheo A #10]	0.016		0.018		0.0159
AACAUGAGGAUCACCCAUGUCUGAACUGAAGGAGCGCUAAAUAAGGCAGGUAGGUCGCGGAAUUUUGUGUACAUAUGUAUAUGGG [9.H]	0.0217	0.0259	0.0322	0.0358	0.0238
UCAUUGAGAGUCAUCCAGCGUUAAUGGGAUACCAGAGUUCUUUUACUCCCUUGGCAGCCCGGAACAUGAGGAUCACCCAUGUCUG [theeternabot_exclusion_MS2_Theo_A_39]	0.0167		0.0447		0.0318
AUUAUAGUUUAUAAGGAAAUUGAAACAGAAGGAGCGUGAGUAAUCACAGGUAGGUCGCUGGUAGUACAUGAGGAUCACCCAUGUU [JR_Nu_SSArginiA_Sub019]	0.0219	0.0241	0.0322	0.0265	0.0224
GGGAAAUGAAUAGAAUGAGAUGACACAGAAGGAGCGCGGAUUAACGCAGGUAGGUCGCUGACAACAUGAGGAUCACCCAUGUUUC [#10 Same State - Arginine A]	0.0137	0.0142	0.0176	0.018	0.0141
UCUCGGUCUUUCUUUCUCCGAGAAUAUGAUACCAGUUAGUUUUAUGGCCCUUGGCAGCAUAGAACAUGAGGAUCACCCAUGUGUU [SSThA NP+V+V2 #9 +-Same Structure]	0.0481		0.114		0.0965
AGUUUAGACACGGCCGCCACUCGUGACAGAUUUCGCAGUGGUCUACAUGAGGAUCACCCAUGUCUGAGGACCGGGUGUUGAGUUU [XTryp B #8]	0.0763		0.177	0.194	
AAACAUGAGGAUCACCCAUGUUCAAUAGAUACCAGUGAUACGGUGCACCCUUGGCAGCUGUUGCUGAGUGAUGGUUCCCUCGGUA [#24 SameState-TheophyllineA]	0.0199		0.0329		0.0271
GACCGGUUAUAGCGCGAUUGUCUUGUGGAAGGAGCGCAGAGGGCUGCAGGUAGGUCGCCACAUGAGGAUCACCCAUGUCAGGAAA [Biraesge]	0.0281	0.0192	0.0322	0.0355	0.0197
UCGGGCAGAGCGGCCGCCACUGUUUGGCGUGCGGAUGAAGGAACAUGAGGAUCACCCAUGUUGAUUAGGACCGGGCUUGCGGAGA [kklmullin]	0.0126	0.0171	0.027	0.0174	0.0167
CCUCAGCAAUUGGAUACCAGUACAUCGUAAGACAUGAGGAUCACCCAUGUGGGCUUGACAUACCCUUGGCAGCCAUCCUUGAUCC [theeternabot_sameState_MS2_Theo_B_3]	0.101				0.25
AUAAGGUAUCUGCUAUCCUCAUGAGCAGAUACCAGCUAGGAAACUAGCCCUUGGCAGCUGCAACAUGAGGAUCACCCAUGUAAUA [(T)'-(M)'-(T1)-(T2)-(M1)-(M2)_Design1]	0.0644		0.118		0.256
UUUGAUAGGACAGAUACCAGCGUGUUGUUGAACAUGAGGAUCACCCAUGUAGUGAUCGAGCGCCCUUGGCAGCUGGUUUGUUAGG [7.O]	0.102		0.433		0.307
ACGUCCCGUUUACUCGUGGGUUAGGUCGAUACCAGUAUUCAAACUUACCCUUGGCAGCGACAUGAGGAUCACCCAUGUGCGAAGA [XTheo A #22]	0.019		0.0229		0.0175
AAUUGAAACAGAGGUAUAUACGGACAUUACCGAGGACCGGUACGGCCGCCACUCGACCUAAAACAUGAGGAUCACCCAUGUAGCA [theeternabot_exclusion_MS2_Trp_A_20]	0.0126		0.0142	0.0138	
GCUAGUGGCAGAAGGAGCGGCAUACUUGCAAGUGACAUGAGGAUCACCCAUGUAAGGGAAUGCCAGGUAGGUCGCUGCCACUAGC [EAB NP+V+V2 #1 +-Same Structure]	0.0349	0.0317	0.0545	0.0387	0.0285
ACAUGAGGAUCACCCAUGUGAAGGCACGAUACCAGCUGAUCCCGUGGCCCUUGGCAGCGUCCGGUGUGGUCCGGCGGAUGGGACG [xwxmullin]	0.0191	0.025	0.0233	0.0309	0.0264
UCGGGAACAUGAGGAUCACCCAUGUCAGAAGGAGCGCUGAGAGAAGCAGGUAGGUCGCUGACGUAGGAGCUCUCUUCCUAUACGC [Exclusion - Arginine A]	0.0233	0.0306	0.0401	0.0354	0.0254
AACAUGAGGAUCACCCAUGUGUCCUCGAAACGAGGACCGGUACGGCCGCCACUCGACGUAUGUUGACGAAAAGUCAGCAUACGAA [Mat - Exclusion - Trytophan A - D12]	0.112		0.31	0.33	
